Source: paper PMC12800186, “Intelectin-2 is a broad-spectrum antimicrobial lectin” (Nature Communications, 2026)
“And” between values parts separate entries of the source, which are not always exact repeats. Equal values may be shown once.

Assays:
[1] = target: the molecule itself; test: not stated; recombinant StrepII-hItln2; covalent trimers and higher-order oligomers (Supplementary Fig. 8E, F)
[2] = target: the molecule itself; test: cross-linking; 1 mg/mL mItln2 in HEPES/EDTA buffer with BS3 (0.1-5 mM), RT, 30 min; SDS-PAGE with DTT

Row | Protein | stoichiometry N [1] | stoichiometry N [2]
1 | StrepII-tagged human intelectin-2 (A177S, C311G) (natural protein, UniProt Q8WWU7 27-325, looked up, Human intelectin-2 (hItln2, ITLN2), cDNA AY358905; secreted from HEK293 cells; mass and extinction coefficient were calculated without the signal peptide; A177S introduces a glycosylation site, C311G removes an unpaired cysteine; For low pH and low salt experiments the protein was exchanged into PIPES buffer, pH 5.5; also called hItln2; StrepII-hItln2; source: suspension-adapted HEK293 cells, …) AAASSLEMLSREFETCAFSFSSLPRSCKEIKERCHSAGDGLYFLRTKNGVVYQTFCDMTSGGGGWTLVASVHENDMRGKCTVGDRWSSQQGNKADYPEGDGNWANYNTFGSAEAATSDDYKNPGYYDIQAKDLGIWHVPNKSPMQHWRNSSLLRYRTNTGFLQRLGHNLFGIYQKYPVKYRSGKCWNDNGPAIPVVYDFGDAKKTASYYSPYGQREFVAGFVQFRVFNNERAANALCAGIKVTGCNTEHHCIGGGGFFPQGKPRQCGDFSAFDWDGYGTHVKSSGSREITEAAVLLFYR | ≥ 3 | –
2 | StrepII-tagged mouse intelectin-2 (natural protein, UniProt Q80ZA0 20-313, looked up, glycosylated (N-glycosylation examined with PNGase F), Mouse intelectin-2 (mItln2), GenBank AAO60215, UniProt Q80ZA0; amplified from the start to the stop codon and secreted from HEK293 cells; mass and extinction coefficient were calculated without the signal peptide; Non-covalent oligomers of variable size; also called mItln2; strep-mItln2; source: suspension-adapted HEK293 cells, transient transfection, purified from the expression medium …) AEENLDTNRWGNSFFSSLPRSCKEIKQEDTKAQDGLYFLRTENGVIYQTFCDMTTAGGGWTLVASVHENNLRGRCTVGDRWSSQQGNRADYPEGDGNWANYNTFGSAEGATSDDYKNPGYFDIQAENLGIWHVPNNSPLHTWRNSSLLRYRTFTGFLQRLGHNLFGLYQKYPVKYGEGKCWTDNGPAFPVVYDFGDAQKTASYYSPSGRNEFTAGYVQFRVFNNERAASALCAGVRVTGCNTEHHCIGGGGFFPEFDPEECGDFAAFDANGYGTHIRYSNSREITEAAVLLFYR | – | 2 and 3 and 6
